Test: Pull-down with phosphorylated CD244 ITSM1 from NK cell lysates, LC-MS/MS
Type: binding
Details: human NK cell lysates; compared with control phosphopeptide SHIP-1 Y865
Description: For pull-down of associated proteins, streptavidin Sepharose (GE Healthcare) was pre-coated with saturating amounts of peptide or EAT-2. NK92 cells (4×10^8) were treated with 500 μM pervanadate for 15 minutes, then lysed in PBS, 1% Triton X-100, 1 mM sodium orthovanadate in the presence of mammalian protease inhibitor solution (Sigma). Lysates were pre-cleared by centrifugation, followed by incubation with streptavidin Sepharose. Peptide or EAT-2-coated streptavidin beads were incubated with NK92 lysates for 2 hours at 4°C with rotation. Beads were washed once with 15 ml ice cold PBS/1% (v/v) Triton X-100. Bound protein was eluted using 100 mM glycine-HCl pH 2.5.
Protein samples were prepared for mass spectrometry as described previously. Briefly, eluted proteins were spun onto the membranes of Vivacon 500 filters (10,000 MWCO – Sartorius). Membranes were washed once with PBS then proteins were denatured with 8 M urea, reduced with 10 mM DTT in 25 mM ammonium bicarbonate buffer, followed by alkylation with 50 mM iodoacetamide. Proteins were then digested overnight with trypsin. Tryptic peptides were then eluted from the membrane and analyzed on an Ultimate 3000 HPLC-coupled Orbitrap XL mass spectrometer. Proteins were identified by liquid chromatography-coupled tandem mass-spectrometry (LC-MS/MS). Raw data files were converted to mzXML format using ReADW (v. 4.2.1) and submitted to the Central Proteomics Facilities Pipeline for database comparison and peptide identification. Searching against the International Protein Index (IPI) human protein sequence database for protein identification, protein and peptide hits were statistically validated by applying a 1% false discovery rate (FDR) by searching against a concatenated target/decoy database. Datasets were searched with variable peptide modifications for phosphotyrosine, phosphoserine, phosphothreonine, oxidation of methionine and deamination.
Protein identification data were exported into ProteinCenter (v3.8.3013 – Thermo Fisher) for filtering and annotation. Results were filtered to remove any proteins with less than 3 unique peptides, less than 10 percent sequence coverage, or median protein probability scores less than 0.5. To establish sample specificity, any protein with at least 10-fold greater sequence coverage in one sample compared with the other was considered to be specific for that sample.
Similarly, differences in specificity of inhibitory SH2 domain containing proteins for ITSMs are relevant to understanding mechanisms of inhibition by ITSMs. We focused on CD244 ITSMs to establish general paradigms.

Row | Molecule | pull-down by CD244 ITSM1
1 | SAP: small SH2 domain containing adapter protein (protein, UniProt O60880 1-128, looked up) SH2 domain-containing protein …: MDAVAVYHGKISRETGEKLLLATGLDGSYLLRDSESVPGVYCLCVLYHGYIYTYRVSQTETGSWSAETAPGVHKRYFRKIKNLISAFQKPDQGIVIPLQYPVEKKSSARSTQGTTGIREDPDVCLKAP | identifying SAP and EAT-2
2 | SHIP-2: SH2 domain containing phosphatase (protein) MASACGAPGPGGALGSQAPSWYHRDLSRAAAEELLARAGRDGSFLVRDSESVAGAFALCVLYQKHVHTYRILPDGEDFLAVQTSQGVPVRRFQTLGELIGLYAQPNQGLVCALLLPVEGEREPDPPDDRDASDGEDEKPPLPPRSGSTSISAPTGPSSPLPAPETPTAPAAESAPNGLSTVSHDYLKGSYGLDLEAVRGGASHLPHLTRTLATSCRRLHSEVDKVLSGLEILSKVFDQQSSPMVTRLLQQQNLPQTGEQELESLVLKLSVLKDFLSGIQKKALKALQDMSSTAPPAPQPSTRKAKTIPVQAFEVKLDVTLGDLTKIGKSQKFTLSVDVEGGRLVLLRRQRDSQEDWTTFTHDRIRQLIKSQRVQNKLGVVFEKEKDRTQRKDFIFVSARKREAFCQLLQLMKNKHSKQDEPDMISVFIGTWNMGSVPPPKNVTSWFTSKGLGKTLDEVTVTIPHDIYVFGTQENSVGDREWLDLLRGGLKELTDLDYRPIAMQSLWNIKVAVLVKPEHENRISHVSTSSVKTGIANTLGNKGAVGVSFMFNGTSFGFVNCHLTSGNEKTARRNQNYLDILRLLSLGDRQLNAFDISLRFTHLFWFGDLNYRLDMDIQEILNYISRKEFEPLLRVDQLNLEREKHKVFLRFSEEEISFPPTYRYERGSRDTYAWHKQKPTGVRTNVPSWCDRILWKSYPETHIICNSYGCTDDIVTSDHSPVFGTFEVGVTSQFISKKGLSKTSDQAYIEFESIEAIVKTASRTKFFIEFYSTCLEEYKKSFENDAQSSDNINFLKVQWSSRQLPTLKPILADIEYLQDQHLLLTVKSMDGYESYGECVVALKSMIGSTAQQFLTFLSHRGEETGNIRGSMKVRVPTERLGTRERLYEWISIDKDEAGAKSKAPSVSRGSQEPRSGSRKPAFTEASCPLSRLFEEPEKPPPTGRPPAPPRAAPREEPLTPRLKPEGAPEPEGVAAPPPKNSFNNPAYYVLEGVPHQLLPPEPPSPARAPVPSATKNKVAITVPAPQLGHHRHPRVGEGSSSDEESGGTLPPPDFPPPPLPDSAIFLPPSLDPLPGPVVRGRGGAEARGPPPPKAHPRPPLPPGPSPASTFLGEVASGDDRSCSVLQMAKTLSEVDYAPAGPARSALLPGPLELQPPRGLPSDYGRPLSFPPPRIRESIQEDLAEEAPCLQGGRASGLGEAGMSAWLRAIGLERYEEGLVHNGWDDLEFLSDITEEDLEEAGVQDPAHKRLLLDTLQLSK | pulled down by the ITSM peptide
3 | c-Src Tyrosine Kinase (CSK): SH2 domain containing protein pulled down by CD244 ITSM1 (protein) MSAIQAAWPSGTECIAKYNFHGTAEQDLPFCKGDVLTIVAVTKDPNWYKAKNKVGREGIIPANYVQKREGVKAGTKLSLMPWFHGKITREQAERLLYPPETGLFLVRESTNYPGDYTLCVSCDGKVEHYRIMYHASKLSIDEEVYFENLMQLVEHYTSDADGLCTRLIKPKVMEGTVAAQDEFYRSGWALNMKELKLLQTIGKGEFGDVMLGDYRGNKVAVKCIKNDATAQAFLAEASVMTQLRHSNLVQLLGVIVEEKGGLYIVTEYMAKGSLVDYLRSRGRSVLGGDCLLKFSLDVCEAMEYLEGNNFVHRDLAARNVLVSEDNVAKVSDFGLTKEASSTQDTGKLPVKWTAPEALREKKFSTKSDVWSFGILLWEIYSFGRVPYPRIPLKDVVPRVEKGYKMDAPDGCPPAVYEVMKNCWHLDAAMRPSFLQLREQLEHIKTHELHL | pulled down by the ITSM peptide
4 | SHIP-1: SH2 domain containing phosphatase (protein) MVPCWNHGNITRSKAEELLSRTGKDGSFLVRASESISRAYALCVLYRNCVYTYRILPNEDDKFTVQASEGVSMRFFTKLDQLIEFYKKENMGLVTHLQYPVPLEEEDTGDDPEEDTVESVVSPPELPPRNIPLTASSCEAKEVPFSNENPRATETSRPSLSETLFQRLQSMDTSGLPEEHLKAIQDYLSTQLAQDSEFVKTGSSSLPHLKKLTTLLCKELYGEVIRTLPSLESLQRLFDQQLSPGLRPRPQVPGEANPINMVSKLSQLTSLLSSIEDKVKALLHEGPESPHRPSLIPPVTFEVKAESLGIPQKMQLKVDVESGKLIIKKSKDGSEDKFYSHKKILQLIKSQKFLNKLVILVETEKEKILRKEYVFADSKKREGFCQLLQQMKNKHSEQPEPDMITIFIGTWNMGNAPPPKKITSWFLSKGQGKTRDDSADYIPHDIYVIGTQEDPLSEKEWLEILKHSLQEITSVTFKTVAIHTLWNIRIVVLAKPEHENRISHICTDNVKTGIANTLGNKGAVGVSFMFNGTSLGFVNSHLTSGSEKKLRRNQNYMNILRFLALGDKKLSPFNITHRFTHLFWFGDLNYRVDLPTWEAETIIQKIKQQQYADLLSHDQLLTERREQKVFLHFEEEEITFAPTYRFERLTRDKYAYTKQKATGMKYNLPSWCDRVLWKSYPLVHVVCQSYGSTSDIMTSDHSPVFATFEAGVTSQFVSKNGPGTVDSQGQIEFLRCYATLKTKSQTKFYLEFHSSCLESFVKSQEGENEEGSEGELVVKFGETLPKLKPIISDPEYLLDQHILISIKSSDSDESYGEGCIALRLEATETQLPIYTPLTHHGELTGHFQGEIKLQTSQGKTREKLYDFVKTERDESSGPKTLKSLTSHDPMKQWEVTSRAPPCSGSSITEIINPNYMGVGPFGPPMPLHVKQTLSPDQQPTAWSYDQPPKDSPLGPCRGESPPTPPGQPPISPKKFLPSTANRGLPPRTQESRPSDLGKNAGDTLPQEDLPLTKPEMFENPLYGSLSSFPKPAPRKDQESPKMPRKEPPPCPEPGILSPSIVLTKAQEADRGEGPGKQVPAPRLRSFTCSSSAEGRAAGGDKSQGKPKTPVSSQAPVPAKRPIKPSRSEINQQTPPTPTPRPPLPVKSPAVLHLQHSKGRDYRDNTELPHHGKHRPEEGPPGPLGRTAMQ | pulled down by the ITSM peptide

From paper PMC3958483, “Fine Specificity and Molecular Competition in SLAM Family Receptor Signalling” (PLoS ONE, 2014)
